Assay results taken from patent US20250297026A1 (PETMEDIX, published 2025).
Substitutions are numbered along the chain they refer to. One block for each binder: values may come before it.

Columns and labels:
canine CD20 [1] = molecular target: T1, canine CD20 (canine, UniProt Q3C2E2 1-297); assay: cell-based or functional assay
T1 chain: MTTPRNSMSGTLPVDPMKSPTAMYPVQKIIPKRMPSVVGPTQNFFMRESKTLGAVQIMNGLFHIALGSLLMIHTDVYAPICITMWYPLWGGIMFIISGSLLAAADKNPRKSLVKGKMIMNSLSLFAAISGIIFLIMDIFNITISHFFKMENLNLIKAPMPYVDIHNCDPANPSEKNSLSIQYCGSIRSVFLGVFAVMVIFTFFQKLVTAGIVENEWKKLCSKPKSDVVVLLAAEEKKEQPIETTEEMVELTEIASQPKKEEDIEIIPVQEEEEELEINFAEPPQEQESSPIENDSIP

canine CD20 [2] = molecular target: T2, canine CD20 (UniProt Q3C2E2 1-297); assay: flow cytometry, cCD20-expressing MDCK II cells; apparent Kd (EC50 of binding)
T2 chain: T1 chain

canine CD20 [3] = molecular target: T1, canine CD20; assay: flow cytometry on cCD20-expressing MDCK II cells, 10 ug/ml antibody, FITC anti-canine IgG (FIG. 3A)
Procedure: FIG. 3. Binding assessment of anti-canine CD20 mAbs using flow cytometry. PMX001, PMX002, PMX003, PMX004, PMX005, 1 E4-cIGGB, 4E1-7-clGGB (see A) and PMX006, PMX007, PMX008, PMX009, PMX010, PMX011 (see B) and PMX003, PMX066, PMX067, PMX069, PMX070, PMX071, PMX072, PMX073, PMX074, PMX075, PMX076, PMX077, PMX078, PMX079, PMX080, PMX081, 1E4-cIGGB, 4E1-7-clGGB (see C) were applied to cCD20-expressing MDCK II cells at 10 μg/ml. Rituximab-clGGB (grey shadow) was used as the isotype control and presented in each plot. (D) Affinity determination of PMX003, PMX115 and PMX070 mAbs. Binding of 1:2 serially diluted antibodies to cCD20-expressing MDCK II cells was assessed in a binding assay and the mean values of the fluorophore signal was determined. The plot of mean fluorescence intensity (MFI) versus concentration was used to determine EC50 of binding, using non-linear regression, which is the apparent Kd of antibody binding to cell surface expressed canine CD20.
HEK293 cells or MDCK II cells were stably transfected with a vector encoding the full length of canine CD20 cDNA. Binding of antibodies to these cells were assessed using flow cytometry. […] Cells incubated with anti-canine IgG FITC secondary antibody and without primary anti-canine CD20 antibody, or with isotype control primary antibody, were used as negative controls. The data were acquired on either a Beckman Coulter CytoFLEX or a BD Accuri C6 Plus flow cytometer and analysed using FlowJo software. […] Graphs using mean fluorescence intensity (MFI) values of the FITC channel vs concentration of antibody were plotted in GraphPad Prism (FIG. 3D).

binding result (canine CD20 [3]): binds
B2: PMX002 mAb (antibody, V domains shown)
VH: EVQLVESGGDLVKPGGSLRLSCVASGIIFSNYHMSWVRQVPGKGLQWVAYINSGGSTINYADGVKGRFTISRDNAKNSLYLQMNSLRGEDTAVYYCTTYDSWGQGTLVTVSS
VL: SYVLTQLPSKNVTLKQPAHITCGGDNIGSKSVHWYQQKLGQAPVLIIYYDSSRPTGIPERFSGANSGNTATLTISGALAEDEADYYCQVWDSSVNVFGGGTHLTVLG
notes: Fully canine mAb with dog IGGB and dog IGLC5 constant regions; Expressed in CHO cells

binding result (canine CD20 [3]): binds
B5: PMX004 mAb (antibody, V domains shown)
VH: EVQLVESGGELVKPGGSLRVSCVASGITFSRYHMSWVRQAPGKGLQWVAFINTDRSSPKYADSVKGRFTISRDNAKNTLYLQMNSLRAEDTAIYYCTSFDYWGQGTLVTVSS
VL: B2 VL with V94A
notes: as for B2

binding result (canine CD20 [3]): binds
B7: PMX005 mAb (antibody, V domains shown)
VH: EVQLVESGGDLVKPGGSLRLSCVASGFTFSRYHMSWVRQAPGKGLQWVAYINSGGSDSDYADAVKGRFTISRDNAKNTLYLQMNSLRAEDTAVYYCTSLDYWGQGTLVTVSS
VL: B2 VL with S92R, V94G
notes: as for B2

ADCC EC50 (canine CD20 [1]): 0.12 nM
CDC EC50 (canine CD20 [1]): 16.4 nM
B8: PMX079 (antibody, V domains shown)
VH: B7 VH with F27L, Y50F, G55R, S58T, D59T, S98T, L99F
VL: SYVLTQLPSKNVTLKQPAHITCGGDNIGSKSVHWYQQKLGQAPALIIYYDSSRPTGIPERFSGANSGNTATLTISGALAEDEADYYCQVWDSSANVFGGGTHLTVL
ADCC Maximum killing (%) (canine CD20 [1]): 52%
CDC Maximum killing (%) (canine CD20 [1]): 96.7%

ADCC EC50 (canine CD20 [1]): 0.13 nM
CDC EC50 (canine CD20 [1]): 9.84 nM
B9: PMX077 (antibody, V domains shown)
VH: B7 VH with F27I, H33Y, S35N, D57P, S58T, D59T, L99F
VL: B8 VL with A44I, S51T
ADCC Maximum killing (%) (canine CD20 [1]): 42%
CDC Maximum killing (%) (canine CD20 [1]): 98.7%

Kd (canine CD20 [2]): 0.8 nM
B10: PMX115 mAb (antibody, V domains shown)
VH: EMQLVESGGALVKPGGSLRLSCVASGFTFRRYHMSWVRQAPGQGLQWVAYIDSDGSPTSYGDSVKGRFTISRDNAKNTLFLQMNSLRVDDTAVYYCTTLDYWGRGTLVTVSS
VL: B8 VL with L7V, N11S, S29G, A44L, S51T, S52R, G76R, A94G, L106I

ADCC EC50 (canine CD20 [1]): 0.14 nM
CDC EC50 (canine CD20 [1]): 7.76 nM
B13: PMX076 (antibody, V domains shown)
VH: B7 VH with F27I, H33Y, S35N, N52D, D57P, S58T, D59T, N77K, T78A, L99F
VL: B8 VL with A44V, Y86F
ADCC Maximum killing (%) (canine CD20 [1]): 49%
CDC Maximum killing (%) (canine CD20 [1]): 98.3%

ADCC EC50 (canine CD20 [1]): 0.16 nM
CDC EC50 (canine CD20 [1]): 10.6 nM
B18: PMX081 (antibody, V domains shown)
VH: EVQLVQSGGDLVKPGGSLRLSCVASGYTFTRYHMSWVRQAPGKGLQWVAFINSDGTGITYGDAVKGRFTISRDNAKNTLYLQMNSLRAEDTAIYYCTTFDSWGQGTLVTVSS
VL: B8 VL with A44I, S52R, A94G
ADCC Maximum killing (%) (canine CD20 [1]): 51%
CDC Maximum killing (%) (canine CD20 [1]): 98.5%

ADCC EC50 (canine CD20 [1]): 0.13 nM
CDC EC50 (canine CD20 [1]): 21.9 nM
B19: PMX080 (antibody, V domains shown)
VH: B7 VH with F27L, H33Y, S35N, N52D, D57P, S58T, D59N, T97S, L99F
VL: B8 VL with L4V, K10N, N11T, A44V, S52R
ADCC Maximum killing (%) (canine CD20 [1]): 50%
CDC Maximum killing (%) (canine CD20 [1]): 96.2%

ADCC EC50 (canine CD20 [1]): 0.22 nM
CDC EC50 (canine CD20 [1]): 9.08 nM
B20: PMX078 (antibody, V domains shown)
VH: B7 VH with F27L, V37I, N52S, D57S, S58T, D59N, D62G, A63S, I70V
VL: B8 VL with A44V, S52R, A94D
ADCC Maximum killing (%) (canine CD20 [1]): 40%
CDC Maximum killing (%) (canine CD20 [1]): 98.8%

The next lines start with the binder.

B1: PMX003 mAb (antibody, V domains shown)
VH: B7 VH with F27I, D57S, S58T, D59S, A61P, N84D, V93L, S98T, L99F
VL: B2 VL with S52R, V94A
ADCC EC50 (canine CD20 [1]): 0.89 nM
ADCC Maximum killing (%) (canine CD20 [1]): 34%
CDC EC50 (canine CD20 [1]): 25 nM
CDC Maximum killing (%) (canine CD20 [1]): 90.4%
Kd (canine CD20 [2]): 1.7 nM

B3: PMX067 (antibody, V domains shown)
VH: B7 VH with V2I, S53T, D57N, S58T, D59N, S98T, Y101S
VL: B8 VL with S9F, A44V, S52R, A94V
ADCC EC50 (canine CD20 [1]): 0.13 nM
ADCC Maximum killing (%) (canine CD20 [1]): 50%
CDC EC50 (canine CD20 [1]): 11.3 nM
CDC Maximum killing (%) (canine CD20 [1]): 97.8%

B4: PMX001 mAb (antibody, V domains shown)
VH: B7 VH with R31S, D57S, S58T, D59T, N77K, T97S, S98T, L99F
VL: B2 VL with K10R, S51T, S52R, V94G
notes: Fully canine mAb; Expressed in CHO cells
binding result (canine CD20 [3]): binds

B6: PMX073 (antibody, V domains shown)
VH: B7 VH with H33Y, S35N, Y50F, N52T, D57S, S58T, D59S, A61G, L99F
VL: B8 VL with A44V, D50A
ADCC EC50 (canine CD20 [1]): 0.21 nM
ADCC Maximum killing (%) (canine CD20 [1]): 48%
CDC EC50 (canine CD20 [1]): 11.1 nM
CDC Maximum killing (%) (canine CD20 [1]): 96.3%

B11: PMX071 (antibody, V domains shown)
VH: EVHLVESGGDLVKPGGSLRLSCVASGITFNRYYMNWVRQTPGKGLQWVAYIDSGGSPTTYADAVKGRFTISRDNAKNTLYLQMNSLRAEDTAVYYCTSFDYWGQGTLVTVSS
VL: B8 VL with A44I, S51T
ADCC EC50 (canine CD20 [1]): 0.15 nM
ADCC Maximum killing (%) (canine CD20 [1]): 41%
CDC EC50 (canine CD20 [1]): 28.9 nM
CDC Maximum killing (%) (canine CD20 [1]): 94.3%

B12: PMX075 (antibody, V domains shown)
VH: EVQLVESGGDLVKPGGSLRLSCVASGITFSRYHMSWVRQAPGKGLQWVAFINTGRSSTNYADAVAGRFTISRDNAKNTLYLQMNGLTVEDTAVYYCSTLDYWGQGTLVTVSS
VL: B8 VL with N11S, A44I, S51N, S52N, Q88H, A94V
ADCC EC50 (canine CD20 [1]): 0.14 nM
ADCC Maximum killing (%) (canine CD20 [1]): 46%
CDC EC50 (canine CD20 [1]): 6.02 nM
CDC Maximum killing (%) (canine CD20 [1]): 98.9%

B14: PMX069 (antibody, V domains shown)
VH: B10 VH
VL: B8 VL with L7V, S29G, A44L, S51T, S52R, G76R, A94G, L106I
ADCC EC50 (canine CD20 [1]): 0.09 nM
ADCC Maximum killing (%) (canine CD20 [1]): 38%
CDC EC50 (canine CD20 [1]): 7.6 nM
CDC Maximum killing (%) (canine CD20 [1]): 98.2%

B15: PMX074 (antibody, V domains shown)
VH: B7 VH with H33Y, S35T, G54D, G55R, S56R, D57S, S58T, D59T, S98T, D100E
VL: B8 VL with A44V, S52R, S75N
ADCC EC50 (canine CD20 [1]): 0.12 nM
ADCC Maximum killing (%) (canine CD20 [1]): 51%
CDC EC50 (canine CD20 [1]): 6.8 nM
CDC Maximum killing (%) (canine CD20 [1]): 98.9%

B16: PMX072 (antibody, V domains shown)
VH: B12 VH with I27F, G85S, T87R, V88A
VL: B8 VL with A44V
ADCC EC50 (canine CD20 [1]): 0.18 nM
ADCC Maximum killing (%) (canine CD20 [1]): 50%
CDC EC50 (canine CD20 [1]): 19.6 nM
CDC Maximum killing (%) (canine CD20 [1]): 91.6%

B17: PMX066 (antibody, V domains shown)
VH: AVQLVESGGDLVKPGGSLRLSCVASGITFSRYHMSWVRQAPGKGLQWVAYINSGGSATSYTDAVKGRFSISRDNGKNTLYLQMNSLRVEDSAVYYCTTLDLWGQGTLVTVSS
VL: B8 VL with A44V, S52R, S75N, V89M
ADCC EC50 (canine CD20 [1]): 0.15 nM
ADCC Maximum killing (%) (canine CD20 [1]): 47%
CDC EC50 (canine CD20 [1]): 12.1 nM
CDC Maximum killing (%) (canine CD20 [1]): 98.5%
